Source: article PMC11077084, “Biochemical characterization of the meiosis-essential yet evolutionarily divergent topoisomerase VIB-like protein MTOPVIB from Arabidopsis thaliana” (Nucleic Acids Research, 2024)

Experiments:
[1] = biological target: T1, N. equitans Topo VI complex (Topo VIA•Topo VIB) (Nanoarchaeum equitans, UniProt Q74N98); assay: radioisotope-based ATPase assay; also ATP-agarose pulldown; assay type: biochemical; conditions: labelled compound (gamma-32P) in the ATPase assay
T1 construct: gene top6B; codon-optimized Topo VIA and VIB co-expressed from pETDuet in E. coli Rosetta (DE3) pLysS; heat step, Ni-NTA; A2B2 heterotetramer; with Type 2 DNA topoisomerase 6 subunit A
T1 sequence (Q74N98 1-567): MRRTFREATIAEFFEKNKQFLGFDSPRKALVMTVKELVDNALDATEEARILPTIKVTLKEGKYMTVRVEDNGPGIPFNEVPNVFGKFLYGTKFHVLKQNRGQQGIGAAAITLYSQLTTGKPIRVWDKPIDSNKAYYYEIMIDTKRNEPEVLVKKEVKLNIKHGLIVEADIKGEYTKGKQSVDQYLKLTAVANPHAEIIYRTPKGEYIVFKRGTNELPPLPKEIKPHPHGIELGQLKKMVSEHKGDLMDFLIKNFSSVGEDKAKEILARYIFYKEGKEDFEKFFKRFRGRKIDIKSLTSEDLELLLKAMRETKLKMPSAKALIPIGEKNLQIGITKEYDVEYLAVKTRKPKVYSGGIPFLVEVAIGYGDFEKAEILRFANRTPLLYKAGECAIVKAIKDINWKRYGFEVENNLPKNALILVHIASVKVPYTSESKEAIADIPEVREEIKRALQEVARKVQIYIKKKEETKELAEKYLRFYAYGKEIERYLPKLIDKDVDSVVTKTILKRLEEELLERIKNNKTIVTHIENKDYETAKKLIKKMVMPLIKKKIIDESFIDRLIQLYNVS
T1 sequence (Q74M54 1-359 partner): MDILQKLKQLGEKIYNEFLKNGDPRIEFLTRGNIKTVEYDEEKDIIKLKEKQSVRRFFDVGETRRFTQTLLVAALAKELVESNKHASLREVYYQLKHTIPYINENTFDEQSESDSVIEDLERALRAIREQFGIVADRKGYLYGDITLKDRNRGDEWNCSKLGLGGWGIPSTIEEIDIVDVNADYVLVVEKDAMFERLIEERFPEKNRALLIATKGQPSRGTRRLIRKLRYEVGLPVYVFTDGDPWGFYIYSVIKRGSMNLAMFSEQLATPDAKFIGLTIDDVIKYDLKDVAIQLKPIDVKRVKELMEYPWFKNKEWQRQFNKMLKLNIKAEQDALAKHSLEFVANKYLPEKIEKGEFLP

[2] = biological target: the molecule itself; assay: SEC; purified MBP-tagged MTOPVIB on a Superdex 200 Increase 10/300 GL column calibrated with size standards; without ATP; monomer to dimer
[3] = biological target: the molecule itself; assay: SEC; Hi-Load Superdex 200 in D buffer without imidazole and glycerol, last step of the purification; monomer to dimer
MTOPVIB = biological target: T2, MTOPVIB (Arabidopsis thaliana, UniProt Q5Q0E6 1-473); assay: SPR; reaction buffer F, 0.05% Tween 20, 23 C; 1:1 global fit; EMSA: reaction buffer F (composition not in material) + 0.1 mg/ml BSA, 23 C, 30 min, 0.8% agarose-TBE at 4 C (6% PAGE for the competition); SPR: buffer F + 0.05% Tween 20, 23 C; conditions: protein: recombinant; tags: none (His6-MBP removed by PreScission); chain copies: 2; label: 5' biotin on Oligo 1; blunt
T2 sequence: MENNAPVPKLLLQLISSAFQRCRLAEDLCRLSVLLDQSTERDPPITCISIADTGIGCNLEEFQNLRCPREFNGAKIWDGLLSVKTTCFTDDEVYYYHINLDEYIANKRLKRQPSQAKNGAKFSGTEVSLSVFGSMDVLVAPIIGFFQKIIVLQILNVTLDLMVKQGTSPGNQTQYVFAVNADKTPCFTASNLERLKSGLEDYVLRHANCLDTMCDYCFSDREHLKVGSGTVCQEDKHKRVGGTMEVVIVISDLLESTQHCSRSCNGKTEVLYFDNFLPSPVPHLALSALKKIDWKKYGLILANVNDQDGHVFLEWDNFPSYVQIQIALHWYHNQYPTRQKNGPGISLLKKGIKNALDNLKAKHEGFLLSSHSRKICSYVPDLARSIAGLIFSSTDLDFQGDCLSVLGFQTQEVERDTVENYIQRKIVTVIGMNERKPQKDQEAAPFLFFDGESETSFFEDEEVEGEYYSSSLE

## Nc1ncnc2c1ncn2[C@@H]1O[C@H](COP(=O)(O)OP(=O)(O)OP(=O)(O)O)[C@@H](O)[C@H]1O [ATP]
[1]
  radioisotope-based ATPase assay; also ATP-agarose pulldown: unlike the Topo VI complex that hydrolyzed ATP to release

B1: A. thaliana His6-MBP-MTOPVIB (natural protein, UniProt Q5Q0E6 1-473, looked up)
chain: T2 sequence
notes: a PreScission protease site lies between the tag and the protein; Tag not cleaved in the size-exclusion analysis (MBP-tagged MTOPVIB) nor during the amylose step of the complex purification; also called MBP-tagged MTOPVIB; meiotic Topo VIB-like protein; source: High Five insect cells (baculovirus); purified alone (amylose, heparin, Mono Q, Superdex 200), and co-expressed with His6-SPO11-1 and …
[2]
  stoichiometry N: 2

B2: Nanoarchaeum equitans Topo VIB (expressed alone from pET21b) (natural protein, UniProt Q74N98 1-567, looked up)
chain: T1 sequence (Q74N98 1-567)
notes: Topoisomerase VI subunit B, Nanoarchaeum equitans, codon-optimized cDNA in the Nde1 and Xho1 sites of pET21b; The tag is inferred from the vector and the Ni-NTA step; also called N. equitans Topo VIB; source: E. coli Rosetta (DE3) pLysS, purified (Ni-NTA, HiPrep SP XL, Hi-Load Superdex 200)
[3]
  stoichiometry N: 2

B3: 80 bp dsDNA, biotinylated (dsDNA)
DNA 1: TTATGTTCATTTTTTATATCCTTTACTTTATTTTCTCTGTTTATTCATTTACTTATTTTGTATTATCCTTATCTTATTTA
DNA 2: TAAATAAGATAAGGATAATACAAAATAAGTAAATGAATAAACAGAGAAAATAAAGTAAAGGATATAAAAAATGAACATAA
MTOPVIB
  Kd: ~150 nM
